The values that follow are results of earlier work, collected in patent US20050220810A1, “Anti-aging preparation” (Shiseido Company, Ltd., priority 2002, published 2005).

The series concerns vascular endothelial cell HMVEC. Particulars: general statement on positive controls of TSP-1 induction; no test described.

B1: TPA: tissue plasminogen activator, a positive control of the TSP-1 inducing substance (protein, UniProt P00750 36-562, looked up)
Tissue-type plasminogen …: SYQVICRDEKTQMIYQQHQSWLRPVLRSNRVEYCWCNSGRAQCHSVPVKSCSEPRCFNGGTCQQALYFSDFVCQCPEGFAGKCCEIDTRATCYEDQGISYRGTWSTAESGAECTNWNSSALAQKPYSGRRPDAIRLGLGNHNYCRNPDRDSKPWCYVFKAGKYSSEFCSTPACSEGNSDCYFGNGSAYRGTHSLTESGASCLPWNSMILIGKVYTAQNPSAQALGLGKHNYCRNPDGDAKPWCHVLKNRRLTWEYCDVPSCSTCGLRQYSQPQFRIKGGLFADIASHPWQAAIFAKHRRSPGERFLCGGILISSCWILSAAHCFQERFPPHHLTVILGRTYRVVPGEEEQKFEVEKYIVHKEFDDDTYDNDIALLQLKSDSSRCAQESSVVRTVCLPPADLQLPDWTECELSGYGKHEALSPFYSERLKEAHVRLYPSSRCTSQHLLNRTVTDNMLCAGDTRSGGPQANLHDACQGDSGGPLVCLNDGRMTLVGIISWGLGCGQKDVPGVYTKVTNYLDWIRDNMRP
Take B1: the “induction of cell death in vascular endothelial cells” value is “does not induce cell death”.
